In US8597922B2, “Methods and compositions for producing olefins” (LS9, Inc., priority 2007, dated 2013):
Substitutions are numbered along the chain they refer to. Names may count otherwise. Like-named read-outs stand apart in the source and are kept apart here.

Columns and labels:
[1] = In vitro α-olefin synthesis by purified His-tagged protein with hydrogen peroxide; format: biochemical; conditions: 200 μL purified protein, 200 μM hydrogen peroxide, 200 μM potassium hexadecanoate, room temperature overnight
Experimental: E. coli C41 DE3 (ΔfadE) cells were transformed with pET15b-orfKRH21570 using routine transformation techniques. Protein expression was carried out by first inoculating 5 mL of LB broth supplemented with 100 mg/L carbenicillin with a colony of the E. coli strain which was followed by shaking the cells overnight at 37° C. to produce a starter culture. This starter culture was used to inoculate 0.5 L of LB media supplemented with 100 mg/L of carbenicillin. The culture was shaken at 37° C. until an OD600 value of 0.6 was reached, after which it was induced with 1 mM IPTG and 0.5 mM delta-aminolaevulinic acid. The culture was then shaken at 25° C. for approximately 18 h. The protein was purified as described in Example 12.
To assay the activity of ORF_KRH21570, 200 μL of purified protein was incubated with 200 μM of hydrogen peroxide and 200 μM of potassium hexadecanoate. As a negative control, the same reaction was conducted, but without the addition of either purified protein (100 mM sodium phosphate pH 7.2 was used in its place) or free fatty acid. The reactions were performed in duplicates and incubated at room temperature overnight. […] Trimethylanilinium hydroxide was added to the ethyl acetate layer at a 1:1 ratio and the extracts analyzed by GC/MS using the MAR_splitless_short method. […]

[2] = test system: E. coli C41 ΔfadE; format: cell-based
Experimental: Genomic DNA encoding C. efficiens YS-134 (DSMZ44549) orfCE2459 (SEQ ID NO:6) was cloned into the NcoI and EcoRI sites of vector OP-80 (pCL1920 derivative) under the control of the Ptrc promoter. The resulting construct was then transformed into E. coli C41 ΔfadE.
The cells were grown at 37° C. in M9 minimal media supplemented with 20 μg/mL uracil, 1% glucose (w/v), and 100 μg/mL spectinomycin. When the culture reached an OD600 of 0.8 to 1.0, it was induced with 1 mM IPTG supplemented with 0.5 mM delta-aminolaevulinic acid (heme biosynthesis precursor), and 0.05% stearic acid (as a substrate for orfCE2459). The temperature was shifted to 25° C. and cells were allowed to grow for an additional 18-20 h Cells from 1 mL of culture were resuspended with 100 μL of methanol, sonicated for 30 min, and extracted with 300 μL of ethyl acetate. After vortexing for 15 min, 300 μL of water was added, and the mixture was vortexed for another 15 min before centrifugation at 15,000 rpm for 10 min. The solvent layer was analyzed by GC-MS.
Genomic DNA encoding Kokuria rhizophila DC2201 orfKRH21570 (SEQ ID NO:8), which was codon optimized (SEQ ID NO:9) for expression in E. coli, was cloned into the NdeI and XhoI sites of vector OP-183 (pACYC177 derivative) under the control of the Ptrc promoter. The resulting construct was then transformed into E. coli C41 ΔfadE. The cells were grown, extracted, and analyzed as in described in Example 7.
The genomic DNA encoding Bacillus subtilis fatty acid hydroxylase, Cyp152A1 (SEQ ID NO:13) or P450Bsβ, was cloned into the NdeI and XhoI sites of vector OP-183 (pACYC177 derivative) under the control of the Ptrc promoter. The construct was used as a template to introduce a mutation at position 85 changing the Glu to His using the following primer: GTTAATGCGATTCAcGGAATGGATGGC. The resulting constructs were then transformed into E. coli C41 (ΔfadE). The cells were grown at 37° C. in M9 minimal media supplemented with 20 μg/mL uracil, 1% glucose (w/v), and 100 μg/mL carbenicillin. When the culture reached OD600 of 0.8-1.0, it was induced with 1 mM IPTG; supplemented with 0.5 mM delta-aminolaevulinic acid (heme biosynthesis precursor) and 0.05% stearic acid (as a substrate for Bsb). The temperature was shifted down to 25° C. and cells were allowed to grow for an additional 18-20 h. Cells from 1 mL of culture was resuspended with 100 μL of methanol, sonicated for 30 min, and extracted with 300 μL of ethyl acetate. After vortexing the extract for 15 min, 300 μL of water was added, vortexed for another 15 minutes before centrifugation at 15,000 rpm for 10 minutes. The solvent layer was analyzed by GC-MS.

[3] = Specific activity of α-olefin and α/β-hydroxy fatty acid formation by purified enzymes; format: biochemical; conditions: for specific activity for 1-pentadecene formation: 500 μM H2O2, 200 μM potassium hexadecanoate, pH 7.2, room temperature, comparison between enzymes
Experimental: The specific activity of α-olefin formation as well as α-(2) and β-(3)hydroxy fatty acid formation were determined for ORF880, CYP152A1, and CYP152A1 Q85H (see Examples 12 and 16). An E. coli BL21 strain (DE3) (Invitrogen) was transformed with either pET15b-orf 880, pET15b-cyp152A1, and pET15b-cyp152A1 Q85H using routine chemical transformation techniques. Protein expression was carried out by first inoculating a colony of the E. coli strain in 5 mL of LB media supplemented with 100 mg/L of carbenicillin and shaken overnight at 37° C. to produce a starter culture. This starter culture was used to inoculate 0.5 L of LB media supplemented with 100 mg/L of carbenicillin. The culture was shaken at 37° C. until an OD600 value of 0.6 was reached. The culture was placed on ice for 10 min before IPTG was added to a final concentration of 250 μM. The culture was shaken at 25° C. for approximately 18 h, and then centrifuged at 3,700 rpm for 20 min at 4° C. The pellet was then resuspended in 10 mL of buffer containing 100 mM sodium phosphate buffer at pH 7.2 supplemented with Bacterial ProteaseArrest (GBiosciences). The cells were then sonicated at 12 W on ice for 9 sec with 1.5 sec of sonication followed by 1.5 sec of rest. This procedure was repeated 5 times with one min intervals between each sonication cycle. The cell free extract was centrifuged at 10,000 rpm for 30 min at 4° C. 5 mL of Ni-NTA (Qiagen) was added to the supernatant, and the mixture was gently stirred at 4° C. The slurry was passed over a column removing the resin from the lysate. The resin was then washed with 30 mL of buffer containing 100 mM sodium phosphate buffer at pH 7.2 plus 30 mM imidazole. Finally, the protein was eluted with 15 mL of 100 mM sodium phosphate buffer at pH 7.2 plus 250 mM imidazole. The protein solution was dialyzed with 200 volumes of 100 mM sodium phosphate buffer at pH 7.2 with 20% glycerol. Protein concentration was determined using the Bradford assay (Biorad). 578 μg/mL of ORF880, 865 μg/mL of CYP152A1, and 653 μg/mL of CYP152A1 Q85H protein was obtained.
To determine the specific activity with potassium hexadecanoate, the following reactions were set-up where each time point consisted of 500 μL. Each reaction contained of 500 μM H2O2, 200 μM of potassium hexadecanoate, 100 mM sodium phosphate buffer at pH 7.2, and protein at the following concentrations: ORF880-0.23 or 0.46 μM; CYP152A1-8.65, 17.3, or 34.6 μM; CYP152A1 Q85H-6.53, 13.06, or 26.12 μM. The reactions were carried out at room temperature and time points were taken at 0, 1, 3, 5, 7, 10, 14, and 20 minutes. Reactions were quenched with 50 μL of 12 M HCl and then extracted with 200 μL of ethyl acetate. 50 μL of this extract was then reacted with 50 μL N,O-Bis(trimethylsilyl)trifluoroacetamide with trimethyl-chlorosilane (Aldrich). Samples were analyzed using GC/MS using the following parameters: run time: 20 min; column: HP-5-MS Part No. 190915-433E (length of 30 meters; I.D.: 0.25 mm narrowbore; film: 0.25 μM); inject: 1 μL Agilent 6850 inlet; inlet: 300° C. splitless; carrier gas: helium; flow: 1.3 mL/min; oven temp: 100° C. hold 5 min, 320° C. at 20° C./min, 320° C. hold 5 min; det: Agilent 5975B VL MSD; det. temp: 300° C.; scan: 50-500 M/Z. Calibration curves were generated using 1-pentadecene, α(2)-hydroxyhexadecanoic acid, and β(3)-hydroxyhexadecanoic acid dissolved in ethyl acetate and derivatized as described herein.
Based upon this analysis, product formation was determined to be linear within the first three minutes. The specific activities for each enzyme concentration in the linear range were averaged for a given reaction (e.g., decarboxylation, α-hydroxylation, or β-hydroxylation). FIG. 21 summarizes the results. The specific activity for 1-pentadecene formation was similar for ORF880 and CYP152A1. Mutating the glutamine 85 residue to a histidine increased the specific activity of 1-pentadecene formation (i.e., increased fatty acid decarboxylase activity). […]

[4] = with 0.05% stearic acid feeding
[5] = compared with the wild-type version of CYP152A1

B1: orf_Mpop1292: ORF880 homolog P450 enzyme from Methylobacterium populi, ZP_02200540 (protein, listed as Methylobacterium populi)
chain: MPAAIATHRFRKARTLPREPAPDSTLALLREGYGFIRNRCRRHDSDLFAARLLLSPVICMSGAEAARHFYDGHRFTRRHALPPTSFALIQDHGSVMVLDGAAHLARKAMFLSLVGEEALQRLAGLAERHWREAVSGWARKDTVVLLDEAHRVLTAAVCEWVGLPLGPTEVDARAREFAAMIDGTGAVGPRNWRGHLYRARTERWVRKVIDEIRSGRRDVPPGAARTIAEHQDADGQRLDRTVAGVELINVLRPTVANARYIVFAAMALHDHPHQRAALADGGEAAERFTDEVRRFYPFIPFIGGRVRAPFHFGGHDFREGEWVLMDLYGTNRDPRLWHEPERFDPDRFARETIDPFNMVSHGAGSARDGHRCPGEGITRILLRTLSRQLAATRYTVPPQDLTLDLAHVPARPRSGFVMRAVHAP
[1]
  α-olefin formed from hexadecanoic acid: 1-pentadecene

B2: orf_KRH21570: ORF880 homolog P450 enzyme from Kokuria rhizophila DC2201, YP_001856010 (protein, listed as Kokuria rhizophila)
chain: MTSPFGQTRSEQGPSLLRSGYLFASRARRRAGLSSDSGCPVRMPLLGKQTVLVRGEEGVKLFYDTSRVRRDGAMPGVVQGPLFGAGAVHGLDGEAHRVRKNQLADMAYEDERVAAYKPFVAEELENLVARWKDGDNVYDSTAIAFGRASFRWAGLQWGVPEMDRWARRMSRLLDTFGRPATHLVSRLDRIALDRRFAALIKDVRAGKVNAPEDSVLAHMAALVDEHGELVDAKTAGIELQNLTRPNVAVARFAAFAATALVEHPEWVERIRAASEQRGGTLLDVPEAVAFAQEVRRVYPFVPMLPAEVTQDTEIQGCPVHKGERVVLDILGTNTDPTSWDRAATFDPERFLGVEDAEAITTFIPQGGAEVRTGHRCPGEKIAVTSLSAAVVALCRPEVQLPGDQDDLTFSWTHMLTRPVTGVRVRTTR
[2]; [4]
  α-olefin produced: 1-heptadecene
[2]; without stearic acid feeding, grown on glucose
  α-olefin produced: 1-heptadecadiene
[1]
  α-olefin formed from hexadecanoic acid: 1-pentadecene

B3: CYP152A1: Bacillus subtilis fatty acid hydroxylase, NP_388092 (protein, listed as Bacillus subtilis)
chain: MNEQIPHDKSLDNSLTLLKEGYLFIKNRTERYNSDLFQARLLGKNFICMTGAEAAKVFYDTDRFQRQNALPKRVQKSLFGVNAIQGMDGSAHIHRKMLFLSLMTPPHQKRLAELMTEEWKAAVTRWEKADEVVLFEEAKEILCRVACYWAGVPLKETEVKERADDFIDMVDAFGAVGPRHWKGRRARPRAEEWIEVMIEDARAGLLKTTSGTALHEMAFHTQEDGSQLDSRMAAIELINVLRPIVAISYFLVFSALALHEHPKYKEWLRSGNSREREMFVQEVRRYYPFGPFLGALVKKDFVWNNCEFKKGTSVLLDLYGTNHDPRLWDHPDEFRPERFAEREENLFDMIPQGGGHAEKGHRCPGEGITIEVMKASLDFLVHQIEYDVPEQSLHYSLARMPSLPESGFVMSGIRRKS
[2]; [4]
  α-olefin produced: 1-heptadecene
[3]
  specific activity for 1-pentadecene formation: similar

B4: CYP152A1 Q85H (protein, UniProt O31440 1-417, looked up, variant Q85H)
Fatty-acid peroxygenase: B3 chain with Q85H
[2]; [4]
  α-olefin produced: capable of carrying out this reaction
[3]
  specific activity for 1-pentadecene formation: increased
[3]; [5]
  rate of α-hydroxyhexadecanoic acid formation: lowered
  rate of β-hydroxyhexadecanoic acid formation: increased
